The values that follow come from patent US20220403041A1 (Sanofi, published 2022).

In assay [1] the target is T1, soluble CD73 dimer (human, UniProt P21589 27-549, limits assumed).
T1 construct: CD73 in the flow (SPR) or in solution (BLI binning); also called soluble human CD73
T1 sequence: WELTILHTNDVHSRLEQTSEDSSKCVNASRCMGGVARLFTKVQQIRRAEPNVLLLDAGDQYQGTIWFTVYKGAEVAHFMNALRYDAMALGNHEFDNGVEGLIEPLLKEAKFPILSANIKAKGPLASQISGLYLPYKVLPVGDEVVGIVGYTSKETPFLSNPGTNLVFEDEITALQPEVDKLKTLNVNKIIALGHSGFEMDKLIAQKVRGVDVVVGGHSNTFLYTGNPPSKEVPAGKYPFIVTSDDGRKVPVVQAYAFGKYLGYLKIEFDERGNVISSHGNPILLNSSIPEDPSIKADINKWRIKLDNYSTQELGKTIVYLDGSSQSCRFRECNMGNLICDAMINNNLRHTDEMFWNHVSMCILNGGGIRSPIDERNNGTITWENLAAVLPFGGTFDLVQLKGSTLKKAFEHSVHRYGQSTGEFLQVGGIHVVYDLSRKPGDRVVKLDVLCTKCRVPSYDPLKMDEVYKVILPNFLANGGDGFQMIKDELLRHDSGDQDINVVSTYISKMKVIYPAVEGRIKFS
The experiment in a line: SPR, antibody captured on Protein A chip, CD73 in flow; biphasic fit, component of abundance 43%.

In assay [2] the target is T1, soluble CD73 dimer. Nature of the assay: SPR dissociation kinetics.
The target in assay [3] is T1, soluble CD73 dimer. Nature of the assay: SPR, antibody captured on Protein A chip, CD73 in flow; biphasic fit, component of abundance 57%.
The target in assay [4] is T1, soluble CD73 dimer. The experiment in a line: SPR, antibody captured on chip, CD73 in flow; biphasic fit, share after 300 s binding phase of the component with ka 1.58E+05 1/Ms.
The target in assay [5] is T1, soluble CD73 dimer. Nature of the assay: SPR, antibody captured on Protein A chip, CD73 in flow; Langmuir 1:1 fit.
Assay [6] addresses T1, soluble CD73 dimer. The experiment in a line: SPR, antibody captured on chip, CD73 in flow; biphasic fit, share by T0 intercept of the component with kd 4.06E-03 1/s.
The target of assay [7] is T1, soluble CD73 dimer. Nature of the assay: SPR, antibody captured on Protein A chip, CD73 in flow; Langmuir ka with major component kd.
Assay [8] deals with T1, soluble CD73 dimer. The experiment in a line: SPR, antibody captured on chip, CD73 in flow; biphasic fit, share after 300 s binding phase of the component with ka 8.50E+05 1/Ms.
Assay [9] addresses T1, soluble CD73 dimer. The experiment in a line: SPR, antibody captured on chip, CD73 in flow; biphasic fit, share by T0 intercept of the component with kd 1.28E-04 1/s.
The target in assay [10] is T2, human CD73 on COR-L23 lung carcinoma cells (human) (UniProt P21589).
T2 sequence: T1 sequence

Assay [11] has as its target T1, soluble CD73 dimer. Nature of the assay: SPR, antibody captured on Protein A chip, CD73 in flow; biphasic fit, component of abundance 91%.
Assay [12] addresses T2, human CD73 on COR-L23 lung carcinoma cells (human). Nature of the assay: cell-based or functional assay.
The target of assay [13] is T1, soluble CD73 dimer. Nature of the assay: SPR, antibody captured on Protein A chip, CD73 in flow; biphasic fit, component of abundance 9%.
For assay [14], the target named is T1, soluble CD73 dimer. The experiment in a line: SPR, antibody captured on chip, CD73 in flow; biphasic fit, share after 300 s binding phase of the component with ka 1.19E+06 1/Ms.
Assay [15] deals with T1, soluble CD73 dimer. Nature of the assay: SPR, antibody captured on Protein A chip, CD73 in flow; biphasic fit, component of abundance 55%.
Assay [16] has as its target T1, soluble CD73 dimer. Nature of the assay: SPR, antibody captured on chip, CD73 in flow; biphasic fit, share by T0 intercept of the component with kd 6.00E-03 1/s.
Assay [17] deals with T1, soluble CD73 dimer. The experiment in a line: SPR, antibody captured on chip, CD73 in flow; biphasic fit, share after 300 s binding phase of the component with ka 1.16E+05 1/Ms.
The target in assay [18] is T1, soluble CD73 dimer. The experiment in a line: SPR, antibody captured on chip, CD73 in flow; biphasic fit, share by T0 intercept of the component with kd 7.80E-05 1/s.
Assay [19] addresses T1, soluble CD73 dimer. Nature of the assay: SPR, antibody captured on Protein A chip, CD73 in flow; biphasic fit, component of abundance 45%.
In assay [20] the target is T1, soluble CD73 dimer. The experiment in a line: SPR, antibody captured on Protein A chip, CD73 in flow; biphasic fit, component of abundance 15%.
The target in assay [21] is T1, soluble CD73 dimer. Nature of the assay: SPR; KD from Langmuir ka and kd of the principal dissociation component.
In assay [22] the target is T1, soluble CD73 dimer. The experiment in a line: SPR, antibody captured on Protein A chip, CD73 in flow; biphasic fit, component of abundance 65%.
Assay [23] deals with T1, soluble CD73 dimer. The experiment in a line: SPR, antibody captured on Protein A chip, CD73 in flow; biphasic fit, component of abundance 35%.
Assay [24] addresses T1, soluble CD73 dimer. Nature of the assay: SPR, antibody captured on Protein A chip, CD73 in flow; biphasic fit, component of abundance 85%.
Assay [25] concerns the target T1, soluble CD73 dimer. Nature of the assay: SPR, antibody on the solid support, soluble CD73 dimer in solution.
For assay [26], the target named is T1, soluble CD73 dimer. The experiment in a line: SPR, antibody captured on chip, CD73 in flow; biphasic fit, share by T0 intercept of the component with kd 2.70E-03 1/s.
In assay [27] the target is T1, soluble CD73 dimer. The experiment in a line: SPR, antibody captured on chip, CD73 in flow; biphasic fit, share after 300 s binding phase of the component with ka 2.81E+05 1/Ms.
For assay [28], the target named is T1, soluble CD73 dimer. The experiment in a line: SPR, antibody captured on chip, CD73 in flow; biphasic fit, share by T0 intercept of the component with kd 2.70E-05 1/s.
For assay [29], the target named is T1, soluble CD73 dimer. Nature of the assay: SPR, antibody captured on chip, CD73 in flow; biphasic fit, share after 300 s binding phase of the component with ka 1.38E+06 1/Ms.

B1: E3.2/TB19 (bispecific antibody, part only; not given: E3.2 arm; constant regions, V domains shown, part only)
VH: QEQLQESGPGLVKPSETLSLTCTVSGGSIRNNYYNWIRQPAGKGLEWIGRIYISGTTNSNPSLKSRVTMSIDTSKNQFSLKLSSVTAADTAIYYCAREHYVSGTSLDNWGQGTLVTVSS
VL: EIVMTQSPTTLSLSPGERATLSCRASQSVNTNYFSWYQQKPGLTPRLLIYGTSTRATGIPARFSGSGSGTDFTLTISSLQPEDFGIYYCQQDYNLPYTFGQGTYLEIK
Turning to B1, the results for the kon in assay [1], in assay [3] and in assay [5] were 850000 M⁻¹ s⁻¹, 158000 M⁻¹ s⁻¹ and 364000 M⁻¹ s⁻¹, respectively. Moreover, the fold more stable (kd of the principal component) than with either monovalent parental in assay [2] was determined as 5.4 fold. In addition, the abundance of association component (biphasic fit) in assay [4] came to 57%; in assay [8], 43%. Also, the dissociation rate constant (koff) in assay [5] is 0.000164 s⁻¹; in [11] it was 0.000128 s⁻¹; in assay [13], 0.00406 s⁻¹. The abundance of dissociation component (biphasic fit) in assay [6] stood at 9%; in assay [9], 91%. Moreover, the Kd in [7] turned out to be 0.352 nM. Besides, in assay [10], the % inhibition of CD73 activity at 1 µg/ml antibody (COR-L23 cells, 4 h, LC/MS); cell E3.2 x TB19 was 95%. In assay [12], the EC50 (nM) of inhibition of CD73 activity (adenosine by LC/MS) came out at 0.443 nM. The Max Inhib. (projected maximal inhibition at saturating antibody) in assay [12] was 97%. In addition, the inhibition of CD73 enzymatic activity on COR-L23 cells at 1 µg/mL in assay [12] was more than 95%.

B2: TB19/AS30 (bispecific antibody, part only; not given: AS30 arm, constant regions, V domains shown, not shown: another chain or arm of the molecule; a dimerising Fc or GST; small tags and cut ends)
VH: B1 VH
VL: B1 VL
In assay [5], B2 returned a koff of 0.00069 s⁻¹ and a kon of 165000 M⁻¹ s⁻¹. This molecule also yielded an equilibrium dissociation constant (Kd) in assay [7] of 4.18 nM. Further, the % inhibition of CD73 activity at 1 µg/ml antibody (COR-L23 cells, 4 h, LC/MS); cell TB19 x AS30 (monovalent) in assay [10] is -1%.

B3: TB19/C16 (bispecific antibody, part only; not given: C16 arm, part only)
TB19 arm heavy chain: B1 VH
TB19 arm light chain: EIVMTQSPTTLSLSPGERATLSCRASQSVNTNYFSWYQQKPGLTPRLLIYGTSTRATGIPARFSGSGSGTDFTLTISSLQPEDFGIYYCQQDYNLPYTFGQGTYLEIKRTVAAPSVFIFPPSDEQLKSGTASVVCLLNNFYPREAKVQWKVDNALQSGNSQESVTEQDSKDSTYSLSSTLTLSKADYEKHKVYACEVTHQGLSSPVTKSFNRGEC
Turning to B3, the % inhibition of CD73 activity at 1 µg/ml antibody (COR-L23 cells, 4 h, LC/MS); cell TB19 x C16 in assay [10] turned out to be 85%.

B4: TB19/E23 (bispecific antibody, part only; not given: E23 arm, part only)
TB19 arm heavy chain: B1 VH
TB19 arm light chain: B3 TB19 arm light chain
Turning to B4, the % inhibition of CD73 activity at 1 µg/ml antibody (COR-L23 cells, 4 h, LC/MS); cell TB19 x E23 in [10] came out at 50%.

B5: TB19/F1.2 (bispecific antibody, part only; not given: F1.2 arm, part only)
TB19 arm heavy chain: B1 VH
TB19 arm light chain: B3 TB19 arm light chain
For the molecule B5, the % inhibition of CD73 activity at 1 µg/ml antibody (COR-L23 cells, 4 h, LC/MS); cell TB19 x F1.2 in assay [10] came out at 47%.

B6: TB19/TC29 (bispecific antibody, part only; not given: TC29 arm; constant regions, V domains shown, part only)
VH: B1 VH
VL: B1 VL
Regarding B6, the abundance of association component (biphasic fit) in assay [14] was 55%; in assay [17], 45%. Moreover, the kon stood at 1.19e+06 M⁻¹ s⁻¹ in assay [15], 685000 M⁻¹ s⁻¹ in [5] and 116000 M⁻¹ s⁻¹ in [19]. Besides, the abundance of dissociation component (biphasic fit) was 9% in assay [16] and 91% in assay [18]. In addition, the dissociation rate constant (koff) in assay [5] was determined as 8.96e-05 s⁻¹; in assay [11] it was 7.8e-05 s⁻¹; in assay [13] it was 0.006 s⁻¹. Moreover, the Kd in assay [7] amounted to 0.114 nM. Moreover, the % inhibition of CD73 activity at 1 µg/ml antibody (COR-L23 cells, 4 h, LC/MS); cell TB19 x TC29 in assay [10] is 95%. Further, the EC50 (nM) of inhibition of CD73 activity (adenosine by LC/MS) in assay [12] is 0.264 nM. For the same molecule, the EC50, fold lower than that of the antibody mixture in assay [12] turned out to be 50 fold. In assay [12], this molecule came in with a Max Inhib. (projected maximal inhibition at saturating antibody) of 95%. Besides, the inhibition of CD73 enzymatic activity on COR-L23 cells at 1 µg/mL in assay [12] is more than 95%.

B7: TB19/H19 (bispecific antibody, part only; not given: H19 arm; constant regions, V domains shown, part only)
VH: B1 VH
VL: B1 VL
In the case of B7, the figures for the koff in assay [20], in [24] and in [5] were 0.0027 s⁻¹, 2.7e-05 s⁻¹ and 0.000112 s⁻¹, respectively. For the same molecule, the fold increase of apparent affinity (KD) over either monovalent parental antibody in assay [21] was 69 fold. For the same molecule, the kon in [22] amounted to 281000 M⁻¹ s⁻¹; in assay [23], 1.38e+06 M⁻¹ s⁻¹; in [5], 449000 M⁻¹ s⁻¹. Besides, the fold more stable (kd of the principal component) than with either monovalent parental in assay [2] was 26 fold. Also, the fold lower KD than either parental antibody in assay [25] was 15 fold. The dissociation constant Kd in assay [7] came to 0.0602 nM. The abundance of dissociation component (biphasic fit) in assay [26] was 15%; in assay [28], 85%. The % inhibition of CD73 activity at 1 µg/ml antibody (COR-L23 cells, 4 h, LC/MS); cell TB19 x H19 in assay [10] came to 97%. Also, the abundance of association component (biphasic fit) in [27] worked out at 65%; in assay [29], 35%. Also, in assay [12], the EC50 (nM) of inhibition of CD73 activity (adenosine by LC/MS) came out at 0.382 nM. Also, in [12], the Max Inhib. (projected maximal inhibition at saturating antibody) is 98%. In [12], this molecule returned an inhibition of CD73 enzymatic activity on COR-L23 cells at 1 µg/mL of more than 95%.

B8: TB19/TA10 (bispecific antibody, part only; not given: TA10 arm, part only)
TB19 arm heavy chain: B1 VH
TB19 arm light chain: B3 TB19 arm light chain
In the case of B8, in assay [10], the % inhibition of CD73 activity at 1 µg/ml antibody (COR-L23 cells, 4 h, LC/MS); cell TB19 x TA10 was found to be 80%.

B9: TB19/TA9 (bispecific antibody, part only; not given: TA9 arm, part only)
TB19 arm heavy chain: B1 VH
TB19 arm light chain: B3 TB19 arm light chain
Consider B9, for which, in assay [10], the % inhibition of CD73 activity at 1 µg/ml antibody (COR-L23 cells, 4 h, LC/MS); cell TB19 x TA9 stood at 70%.
